The target in this assay is RGDPEG-avidin (UniProt P02701). Briefly: ELISA.
RGDPEG-avidin, sequence (P02701 25-152): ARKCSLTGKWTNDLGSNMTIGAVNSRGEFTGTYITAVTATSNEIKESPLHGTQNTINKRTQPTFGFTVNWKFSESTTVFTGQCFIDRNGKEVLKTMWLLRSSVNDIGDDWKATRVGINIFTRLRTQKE

Bio-ULS-TRAIL, sequence (P50591 114-281): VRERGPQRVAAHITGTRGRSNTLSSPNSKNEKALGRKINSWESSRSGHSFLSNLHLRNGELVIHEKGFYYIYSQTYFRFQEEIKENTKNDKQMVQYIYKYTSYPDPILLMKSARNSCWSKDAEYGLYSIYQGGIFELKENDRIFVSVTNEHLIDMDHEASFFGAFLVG

Take “Bio-ULS-TRAIL (from UniProt P50591 114-281) (ligand)”: the binding less than Bio-NHS-TRAIL is 40 % less.

Values taken from PMC2217618.
